The supplement of paper PMC9170038

System: K4 kissing-loop RNA reporter
Assay: apparent KD of K4 kissing-loop reporter; higher = weaker reporter binding
Details: Eterna round: R107
Method: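 RNA-MaP round R107: designed RNA switches with theophylline, tryptophan, arginine or FMN aptamers are transcribed on-chip within common flanks. They are titrated with a labelled K4 kissing-loop RNA reporter in RNA-MaP buffer (100 mM Tris pH 7.5, 80 mM KCl, 4 mM MgCl2), without ligand or with the indicated ligand. Median apparent KD per design.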

[1] = input ligand: theophylline 20 uM
[2] = input ligand: tryptophan 2.4 mM
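Also: bound reporter read as fluorescence of individual clusters on recovered sequencing chips by microscopy, with normalized cluster intensities fitted with a binding model.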

Sequence | apparent KD of K4 kissing-loop reporter (input ligand: FMN 200 uM) | apparent KD of K4 kissing-loop reporter (input ligand: arginine 13.2 mM) | apparent KD of K4 kissing-loop reporter (input ligand: none) | apparent KD of K4 kissing-loop reporter [1] | apparent KD of K4 kissing-loop reporter [2]
GCGCGGCUCAGUGAUGUUGAGCCUCGGAAACGAGGACCGGUACGGCCGCCACUCGUCCGCGCAGCUGAGGCAAAAGCCUCGGCAA [Omei KL Tryp A SS B v1] | 284 nM | 276 nM | 319 nM | 334 nM | 261 nM
GGAUCCACCAGUGAUGUUGGAGAAAACUUCAAGGAUAUGACGAAAGUCAGAAGGUGGUAGACUGGUCAAAGUCCGGUCGGAUCCA [FmnA10 U29+U66] | 658 nM | 120 nM | 459 nM | 147 nM | 194 nM
ACUUAUUGUGUCGAUACCAGCAGGUGACGACGCCUCAUGGCUGACGAGUGAUGUUCGACUUGCCCUUGGCAGCGACAUACGCCGG [theeternabot_sameState_KL_Theo_B_12] | 354 nM | 228 nM | 356 nM | 365 nM | 310 nM
UAACGACUCGGAAGGAGCGCGGUUUUAAAAGACUAAGGCCGAGUGAUGUUCGGAGAAGUCCCGCAGGUAGGUCGCCGGGUUGUGG [Ceororedar] | 124 nM | 138 nM | 130 nM | 199 nM | 148 nM
AACUCUCAGACAUUUGAGUGAUGUUCAGGCCGAGGACCGGUACGGCCGCCACUCGGGUCUGAGAGAGGUUAUCAAAGAUAGCCAA [Omei KL Tryp A SS A v6] | 467 nM | 179 nM | 234 nM | 214 nM | 385 nM
UGAUACCAGACGGCCGCCACUCCCGUAAGUCAAAGACUUACGAAGAGAGUUUUCCAGUGAUGUUGGAGGACCGGGUCUGGUAUCU [FiskerMod 15 - Jieux - Exclusion - Tryptophan B] | 186 nM | 168 nM | 175 nM | 174 nM | 232 nM
AUGGCACGACUUGCCCACAAUGUCUAUGCCCGAGGACCGGUACGGCCGCCACUCGGAUGCCGUGUCUUAUUAGUGAUGUUGAUAC [theeternabot_sameState_KL_Trp_A_4] | 355 nM | 204 nM | 411 nM | 355 nM | 199 nM
GCGUUCAUGGCAGGAUAUAGGUAAAGGAGUGAUGUUCCUUAUGUUGCAUUUACUUAAUCCAACUCCCUAGAAGGGCCAUGAACGC | 123 nM | 140 nM | 151 nM | 139 nM | 146 nM
ACACGCAACUAUAGACCAGUGAUGUUGGAACGAGGACCGGUACGGCCGCCACUCGAGCGGACGAUCUACGCCUCUUAUGCUAACG [theeternabot_exclusion_KL_Trp_A_15] | 482 nM | 481 nM | 552 nM | 545 nM | 350 nM
CCCUCACGAGUGAUGUUCGUAGGGUACAGUCAGGAUAUCAUGCGGUUGAGAAGGGACAGAGAAGGCGGCCACGGGUUGCUUAUCU [Ussoat] | 215 nM | 258 nM | 342 nM | 388 nM | 308 nM
UCUCUUCUCAGUGAUGUUGAGUAAUCGGAAGGAGCGCGUGAAAACGCAGGUAGGUCGCCGAUUUGUGAAGUAUCUUCGCAAGAGA [Arginine A K4 26] | 352 nM | 341 nM | 412 nM | 441 nM | 300 nM
UAAAUUAAGCUUUGCUGAUUAAUAAGCGAUACCAGCAAAUAAUGAUGCCCUUGGCAGCGUUAUAAUCUAGUGAUGUUAGAUUAGU [Not much to say about this one] | 92.6 nM | 106 nM | 101 nM | 103 nM | 85 nM
CCUAGUCGGAUACUCAAUCCAAUGCGAGAUACCAGCGGUCUUACGCGCCCUUGGCAGCUCAUAAUGAUGAACCAGUGAUGUUGGG [theeternabot_sameState_KL_Theo_A_40] | 423 nM | 268 nM | 397 nM | 446 nM | 368 nM
GUCUAGCUAGCAGGAUAUAGCUGGUAGUGAUGUUACCACUAGAACUCUGCGGAAACGCAGAGUAUCCUAGAAGGGCUAGCUAGAC | 95 nM | 65 nM | 75.4 nM | 63.9 nM | 66.8 nM
UUCGAUCAGUGAUGUUGAUCAAUAGUCGAAGGAGCGCUAUAGAUAGCAGGUAGGUCGCGGCUACAGGGUGUUAAGACACCCAGAA [#13 K4 Arginine A Same State] | 534 nM | 450 nM | 453 nM | 477 nM | 488 nM
AAAACUCAUGGCUUAUAUCCGUGUCUCGAAGGAGCGUACAGCGGUACAGGUAGGUCGCGAGACAUGAGUGAUGUUCAUGUGUAAA [KL-XArg-A6 #analogue] | 109 nM | 109 nM | 129 nM | 169 nM | 104 nM
GUGCAGUGAUGUUGCACGAGGAAAGACGAUACCAGCCGUAAAUAAGGCCCUUGGCAGCGUAGGCUAGCAUAAGGUAUGCUAGUCC [Atesermace] | 117 nM | 109 nM | 108 nM | 95.5 nM | 100 nM
GUGUAGAAGUGAGGAUAUCGAUUUAAGAAUAAGCAGUGAUGUUGCAAGCAGGAGGAAUAAGAUUAACGAGAAGGCGUGGAUAUAG [FMN B Exclusion; Euphoria Solution] | 104 nM | 110 nM | 125 nM | 141 nM | 99.1 nM
AUGUAUGAAUUAGGAUAUCGUUAGCCUUGCAUAUAUAUGAUAAAUGGAUAUGUCGUAGUGAUGUUACGAGAAGGAGUGUGGAGUA [KL-XFMN-B5] | 44.6 nM | 50.5 nM | 38.9 nM | 63.4 nM | 30.2 nM
AGGUGAGACUGAAGGAGCGAUCGCGCCAGUGAUGUUGGUGAGCAUGACAAAGUCAUGCACGAUCAGGUAGGUCGCAGUCUUACUC [Omei KL Arginine B SS B v2] | 199 nM | 156 nM | 206 nM | 188 nM | 185 nM
GAGAUAGCGACGGCCGCCACUAGUGAUGUUAGUGCGGGUAGAUAGAUACUUGAACAGAAAUGACGUAGGACCGGGUCAGAUAGAG [#02 K4 Tryptophan B Exclusion] | 162 nM | 94.5 nM | 125 nM | 140 nM | 149 nM
GUGUGUGUCGGAGGAUAUGCGGUGGGUGUGGGCGGAUUAGUGAUGUUGGUUGUGGUGGUGGUGGGUGUAGAAGGUUGGUGUGUGU [RHig 3/7 C] | 710 nM | 350 nM | 738 nM | 400 nM | 444 nM
